{"source": "patent US10556007B2", "about": "“Antibody which binds Lrg1 and methods of use” (UCL Business PLC, priority 2015, dated 2020)", "molecules": {"B1": {"name": "Magacizumab: humanised 15C4 antibody comprising heavy chain variable regions VH5 and kappa light chain variable regions VK3 (antibody, V domains shown)", "VH": "QVQLVQSGAEVKKPGSSVKVSCKASGYTFSGYWMNWVRQAPGQGLEWIGQIYPGDGDTNYNGKFKGRVTITADKSTSTAYMELSSLRSEDTAVYYCARSITTVVLDYWGQGTTVTVSS", "VL": "DIVLTQSPDSLAVSLGERATISCRASQSVSTSGYSFMHWYQQKPGQPPKLLIKYASNLESGVPARFSGSGSGTDFTLTISSLQPEDFATYYCQHSWEMPLTFGQGTKLEIK"}, "B2": {"name": "chimeric: murine 15C4 variable regions combined with human IgG4 (S241P) heavy chain and Kappa light chain constant regions (antibody, V domains shown)", "VH": "QVQLQQSGDEVVRPGSSVKISCKASGYTFSGYWMNWVKQRPGQGLQWIGQIYPGDGDTNYNGKFKGKATLTADKSSSTAYMQLSTLTSEDSAIYFCARSITTVVLDYWGQGTTLTVSS", "VL": "DIVLTQSPVSLAVSLGQRATISCRASQSVSTSGYSFMHWYQQKPGQPPKFLIKYASNLESGVPARFSGSGSGTDFTLNIHPVEEEDTATYYCQHSWEMPLTFGAGTKLELK"}}, "key": {"[1]": {"tested_on": "laser-induced choroidal neovascularisation", "assay": "Rat laser-induced choroidal neovascularisation (CNV)", "type": "in vivo", "details": "Long Evans rats, intravitreal at time of lasering, analysis 7 days later", "experimental": "Several antibodies were tested for their ability to block CNV in the rat. In these experiments mAbs were injected intravitreally at the time of lasering, with eyes being retrieved for analysis 7 days later (FIG. 5). Long Evans rats, aged 6-8 weeks, each received 5 retinal laser burns at the same time as intravitreal delivery of […] mAb or control IgG into both eyes. Four rats were used for each mAb, so a total of 40 lesions were analysed by staining for collagen IV and the neovascular areas quantified. […] Avastin was also tested in the rat laser model (data not shown) and observed to have no effect, consistent with Avastin having low affinity for rat VEGF."}, "[2]": {"tested_on": "laser-induced choroidal neovascularisation", "assay": "Mouse model of laser-induced CNV", "type": "in vivo", "details": "for lesion size: C57B6 mice, intravitreal", "experimental": "The images on the left of FIG. 17A show a typical wild-type mouse retina under normal illumination (Fundus), and under fluorescence illumination, 7 days after three laser burns were administered to the retinal pigment epithelium. Fluorescence images were captured ˜60 seconds after systemic dosing with fluorescein (Early Phase FFA) and again after ˜7 minutes (Late Phase FFA). At the time of lasering, animals received intraocular injections of either control IgG (top panels) or 15C4 (lower panels). The Early Phase FFA images show the size of the lesions, and the Late Phase images show leakage of fluorescein into the retina. Lesion sizes were quantified for 15C4 at 2.5, 5 and 10 μg doses, and also Eylea at 2 and 4 μg, and the % blocking is a measure of average lesion size relative to that observed in the controls. On the far right a similar analysis was undertaken using Eylea and Magacizumab (both at 2.1 μg) alone and in combination.\nWild type C57B6 mice were anaesthetized and received intravitreal injections of various doses of either Magacizumab, Eylea, or both in combination, immediately following laser photocoagulation of the retinal pigment epithelium. After 7 days (to allow the vascular lesions to form) the mice were again anaesthetized and examined by fluorescein angiography (FFA). Early phase FFA images (taken after 90 s) show the degree of vascularization at the lesion site. Measurement of the lesion area in the early phase images permits quantification in which percentage lesion size is normalized against the IgG4 control (FIG. 18)."}, "[3]": {"assay": "Analytical size exclusion chromatography", "type": "physicochemical"}, "healthy donor T cells": {"tested_on": "healthy donor T cells", "assay": "EpiScreen T cell proliferative assay", "type": "cell-based, human", "details": "20 donor T cell samples, days 5-8", "source_text": "FIG. 21D—Summary of healthy donor T cell proliferative responses. Positive T cell responses during EpiScreen™ time course days 5-8 are shown (P). Samples inducing proliferation with SI ≥2.00 that were significant (p<0.05) were considered positive (borderline responses* SI≥1.90, p<0.05 are also shown). The frequency of positive T cell responses for proliferation are shown as a percentage at the bottom of the columns."}, "human Lrg1": {"biological_target": "T1, human Lrg1 (Homo sapiens, UniProt P02750)", "T1 sequence (P02750 36-347)": "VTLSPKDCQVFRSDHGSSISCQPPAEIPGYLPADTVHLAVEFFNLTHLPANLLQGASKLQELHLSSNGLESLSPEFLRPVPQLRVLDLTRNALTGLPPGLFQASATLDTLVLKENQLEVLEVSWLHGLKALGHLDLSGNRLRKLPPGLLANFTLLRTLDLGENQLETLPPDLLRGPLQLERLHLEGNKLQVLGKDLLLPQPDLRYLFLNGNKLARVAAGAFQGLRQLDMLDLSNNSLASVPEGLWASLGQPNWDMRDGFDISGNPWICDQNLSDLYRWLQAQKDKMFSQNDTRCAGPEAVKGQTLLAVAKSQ", "assay": "Anti-human Lrg1 competition ELISA against biotinylated mouse 15C4", "type": "binding", "parameters": "made in house", "details": "competition with biotinylated mouse 15C4", "experimental": "The chimeric antibody was expressed transiently in HEK EBNA cells and stably in NS0 mouse myeloma cells, purified and tested for binding to human Lrg1 in a competition ELISA assay. A Nunc Immuno MaxiSorp 96 well flat bottom microtitre plate (Fisher, cat. no. DIS-971-030J) was pre-coated with 0.2 μg/ml hLrg1 (supplied by UCL) overnight in 0.1 N Sodium Carbonate buffer (NaHCO3) at +4° C. The following day the plate was washed 1× with PBST and blocked with 3% BSA/PBS for 1 hour at room temperature. After washing 3× with PBST, a three-fold dilution series of chimeric, mouse or control antibodies from 100 μg/ml to 0.13 μg/ml was premixed with a constant concentration of biotinylated mouse 15C4 (0.4 μg/ml, final concentration), added to the plates and incubated for 1.5 hours at room temperature. Following 3×PBST washes, the binding of the biotinylated mAb was detected with streptavidin-HRP (Sigma, cat. no. 55512) and TMB substrate (Invitrogen, cat. no. 00-2023). The reaction was stopped with 3 M HCl, absorbance read at 450 nm on a Dynex Technologies MRX TC II plate reader and the binding curves plotted.\nThe properties of Magacizumab were investigated. […] An anti-hLrg1 competition ELISA was carried out. […] Bound biotinylated mouse 15C4 was detected using streptavidin-peroxidase and TMB substrate. […]"}}, "note": "“Also recorded” adds a separate entry of the source."}
{"molecule": "Avastin: anti-VEGF antibody Bevacizumab (Avastin) [reference compound]", "values": [{"measurement": "blockade of angiogenesis (CNV)", "setting": "[1]", "value": "no effect"}]}
{"molecule": "B1", "values": [{"measurement": "lesion size", "setting": "[2]; alone, vs IgG4 control", "value": "significant reduction in lesion size"}, {"measurement": "lesion size", "setting": "[2]; in combination with Eylea, vs control", "value": "significant reduction in lesion size"}, {"measurement": "lesion formation", "setting": "[2]; intraocular injection at lasering, FFA after 7 days", "value": "Dose-Dependent Inhibition of Lesion Formation; also recorded: inhibit lesion formation with similar efficacy to the VEGF blocker Eylea"}, {"measurement": "aggregation by analytical size exclusion chromatography", "setting": "[3]", "value": "single peak and no aggregates"}, {"measurement": "T cell proliferative response", "setting": "healthy donor T cells", "value": "failed to elicit a proliferative response in any of the 20 donor T cell samples"}]}
{"molecule": "B2", "values": [{"measurement": "binding profile / competition for binding to human Lrg1", "setting": "human Lrg1", "value": "very similar binding profile to mouse 15C4"}]}
